Assay results taken from paper PMC10092763.

Molecular target: PAX2 (UniProt Q02962)
Experiment: co-IP, FLAG-PAX2 with HA-AFF4
Conditions: reference: wild type; sites S388

- binding against the reference: weaker
Substance: AFF4 (from UniProt Q9UHB7) S388A
